Values of other authors as cited in PMC5580472.
Like-named read-outs stand apart in the source and are kept apart here.

Experiments:
TNF (Homo sapiens) [1] = target: TNF (Homo sapiens) (UniProt P01375)
TNF (Homo sapiens) [2] = target: TNF (Homo sapiens) (UniProt P01375); remark: listed apart in the source

Chain of TNF (Homo sapiens) (P01375 77-233): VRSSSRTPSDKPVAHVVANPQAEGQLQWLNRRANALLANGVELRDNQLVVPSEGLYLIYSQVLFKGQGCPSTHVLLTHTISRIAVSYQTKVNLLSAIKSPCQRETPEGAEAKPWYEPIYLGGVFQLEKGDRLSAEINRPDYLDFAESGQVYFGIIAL
Chain of CrmB (P0DSV7 23-349): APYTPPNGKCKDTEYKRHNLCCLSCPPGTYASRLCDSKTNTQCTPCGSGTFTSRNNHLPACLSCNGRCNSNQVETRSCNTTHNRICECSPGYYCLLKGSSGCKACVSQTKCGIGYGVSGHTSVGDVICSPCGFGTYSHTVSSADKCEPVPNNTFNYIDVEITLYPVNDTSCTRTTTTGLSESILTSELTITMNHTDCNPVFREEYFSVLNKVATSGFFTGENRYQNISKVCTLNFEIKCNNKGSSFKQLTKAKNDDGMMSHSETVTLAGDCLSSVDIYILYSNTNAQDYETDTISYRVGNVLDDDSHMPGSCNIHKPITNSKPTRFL
Chain of TNF receptor 2 (P20333 23-461): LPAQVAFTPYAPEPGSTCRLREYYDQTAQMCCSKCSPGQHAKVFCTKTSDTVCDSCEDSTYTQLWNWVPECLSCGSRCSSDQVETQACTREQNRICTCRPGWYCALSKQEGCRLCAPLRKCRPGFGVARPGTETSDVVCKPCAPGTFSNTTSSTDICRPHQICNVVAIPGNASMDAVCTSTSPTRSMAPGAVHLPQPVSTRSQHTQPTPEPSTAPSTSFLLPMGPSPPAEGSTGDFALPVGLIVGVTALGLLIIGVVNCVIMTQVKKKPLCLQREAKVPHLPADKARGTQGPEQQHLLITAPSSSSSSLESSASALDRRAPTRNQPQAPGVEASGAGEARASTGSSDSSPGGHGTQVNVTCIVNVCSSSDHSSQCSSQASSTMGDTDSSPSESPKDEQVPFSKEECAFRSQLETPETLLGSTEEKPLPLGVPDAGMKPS

Row | Substance | Kd (TNF (Homo sapiens) [1]) | Kd (TNF (Homo sapiens) [2])
1 | CrmB (from UniProt P0DSV7) | 0.28 nM | –
2 | TNF receptor 2 (from UniProt P20333) | – | 0.3 nM
